This note sets out measurements from the supplement of paper PMC5998384.

In data set [1] the test system is HeLa Kyoto. The data set is described as follows: solubility in G1/S (NP-40 vs SDS abundance) (log2 ratio); higher = more soluble. As to conditions: cell cycle stage: G1/S.
The subject of data set [2] is HeLa Kyoto. In words: melting temperature (median over replicates), in situ; higher = more thermally stable.
Data set [3] deals with HeLa Kyoto. The data set is described as follows: solubility change mitosis vs G1/S (difference of NP-40 vs SDS log2 ratios) (log2 ratio difference); higher = more soluble in mitosis.
The test system of data set [4] is HeLa Kyoto. The data set is described as follows: thermal stability score vs G1/S (z-score of summed log2 fold changes over temperatures); higher = more thermally stable than in G1/S.
Where [5] appears, read: cell cycle stage: early G1 (4.5 h after nocodazole release).
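Wherever melting temperature (median over replicates), in situ is given: HeLa Kyoto cells synchronized by double thymidine or nocodazole block, proteins quantified by TMT10plex mass spectrometry, three independent biological replicates.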
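Wherever solubility change mitosis vs G1/S (difference of NP-40 vs SDS log2 ratios) is given: synchronized HeLa Kyoto cells (double thymidine block for G1/S, nocodazole release for mitosis), protein amounts in NP-40 versus SDS lysates quantified by mass spectrometry, three biological replicates.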
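Wherever solubility in G1/S (NP-40 vs SDS abundance) is given: HeLa Kyoto cells arrested at G1/S by double thymidine block, proteins quantified by TMT10plex mass spectrometry in mild NP-40 versus SDS extracts, three biological replicates.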
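Wherever thermal stability score vs G1/S (z-score of summed log2 fold changes over temperatures) is given: synchronized HeLa Kyoto cells, proteins quantified by TMT10plex mass spectrometry, three biological replicates, mitosis taken 0.5 h after nocodazole release, G1/S directly after double thymidine block.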

Take “MVADPPRDSKGLAAAEPTANGGLALASIEDQGAAAGGYCGSRDQVRRCLRANLLVLLTVVAVVAGVALGLGVSGAGGALALGPERLSAFVFPGELLLRLLRMIILPLVVCSLIGGAASLDPGALGRLGAWALLFFLVTTLLASALGVGLALALQPGAASAAINASVGAAGSAENAPSKEVLDSFLDLARNIFPSNLVSAAFRSYSTTYEERNITGTRVKVPVGQEVEGMNILGLVVFAIVFGVALRKLGPEGELLIRFFNSFNEATMVLVSWIMWYAPVGIMFLVAGKIVEMEDVGLLFARLGKYILCCLLGHAIHGLLVLPLIYFLFTRKNPYRFLWGIVTPLATAFGTSSSSATLPLMMKCVEENNGVAKHISRFILPIGATVNMDGAALFQCVAAVFIAQLSQQSLDFVKIITILVTATASSVGAAGIPAGGVLTLAIILEAVNLPVDHISLILAVDWLVDRSCTVLNVEGDALGAGLLQNYVDRTESRSTEPELIQVKSELPLDPLPVPTEEGNPLLKHYRGPAGDATVASEKESVM [SLC1A5]”: in the data set with HeLa Kyoto [1], the “solubility in G1/S (log2)” value is 0.196. In the data set with HeLa Kyoto [2] (cell cycle stage: mitosis), the melting temperature was found to be 65.7 °C. In addition, in the data set on HeLa Kyoto [3], the “solubility change mitosis (log2)” value is -0.123. Further, the thermal stability score in the data set on HeLa Kyoto [4] (setting [5]) was -1.47; in the data set with HeLa Kyoto [4] (cell cycle stage: mitosis) it was -1.94.
For the sequence “MVAGSDAGRALGVLSVVCLLHCFGFISCFSQQIYGVVYGNVTFHVPSNVPLKEVLWKKQKDKVAELENSEFRAFSSFKNRVYLDTVSGSLTIYNLTSSDEDEYEMESPNITDTMKFFLYVLESLPSPTLTCALTNGSIEVQCMIPEHYNSHRGLIMYSWDCPMEQCKRNSTSIYFKMENDLPQKIQCTLSNPLFNTTSSIILTTCIPSSGHSRHRYALIPIPLAVITTCIVLYMNGILKCDRKPDRTNSN [CD58]”, the “solubility in G1/S (log2)” value in the data set with HeLa Kyoto [1] is -0.813. The melting temperature with HeLa Kyoto [2] (cell cycle stage: G1/S) came to 55.3 °C. Besides, the “solubility change mitosis (log2)” value with HeLa Kyoto [3] came out at 0.319. Besides, the thermal stability score in the data set on HeLa Kyoto [4] (setting [5]) is -0.387; in the data set on HeLa Kyoto [4] (cell cycle stage: mitosis) it was -1.23.
Consider “MVDLTQVMDDEVFMAFASYATIILSKMMLMSTATAFYRLTRKVFANPEDCVAFGKGENAKKYLRTDDRVERVRRAHLNDLENIIPFLGIGLLYSLSGPDPSTAILHFRLFVGARIYHTIAYLTPLPQPNRALSFFVGYGVTLSMAYRLLKSKLYL [MGST1]”, for which, in the data set with HeLa Kyoto [1], the “solubility in G1/S (log2)” value is -0.321. The results for the melting temperature in the data set on HeLa Kyoto [2] (cell cycle stage: G1/S) and in the data set on HeLa Kyoto [2] (cell cycle stage: mitosis) were 56.8 °C and 58 °C, respectively. In the data set on HeLa Kyoto [3], the “solubility change mitosis (log2)” value was -0.17. Moreover, the thermal stability score was 0.0202 with HeLa Kyoto [4] (setting [5]) and -1.77 in the data set with HeLa Kyoto [4] (cell cycle stage: mitosis).
Turning to “MVEADRPGKLFIGGLNTETNEKALETVFGKYGRIVEVLLIKDRETNKSRGFAFVTFESPADAKDAARDMNGKSLDGKAIKVEQATKPSFERGRHGPPPPPRSRGPPRGFGAGRGGSGGTRGPPSRGGHMDDGGYSMNFNMSSSRGPLPVKRGPPPRSGGPSPKRSAPSGLVRSSSGMGGRAPLSRGRDSYGGPPRREPLPSRRDVYLSPRDDGYSTKDSYSSRDYPSSRDTRDYAPPPRDYTYRDYGHSSSRDDYPSRGYGDRDGYGRDRDYSDHPSGGSYRDSYESYGNSRSAPLTRGPPPSYGGSSRYDDYSSSRDGYGGSRDSYSSSRSDLYSSCDRVGRQERGLPPSVERGYPSSRDSYSSSSRGAPRGAGPGGSRSDRGGGRSRY [RBMXL1]”, in the data set on HeLa Kyoto [1], the “solubility in G1/S (log2)” value was -0.598. Further, the melting temperature is 46.5 °C with HeLa Kyoto [2] (cell cycle stage: G1/S) and 51 °C in the data set on HeLa Kyoto [2] (cell cycle stage: mitosis). In the data set with HeLa Kyoto [3], the “solubility change mitosis (log2)” value is 0.637. Besides, the thermal stability score in the data set with HeLa Kyoto [4] (setting [5]) was -0.08; with HeLa Kyoto [4] (cell cycle stage: mitosis) it was 0.0725.
Turning to “MVEPGQDLLLAALSESGISPNDLFDIDGGDAGLATPMPTPSVQQSVPLSALELGLETEAAVPVKQEPETVPTPALLNVRQQPPSTTTFVLNQINHLPPLGSTIVMTKTPPVTTNRQTITLTKFIQTTASTRPSVSAPTVRNAMTSAPSKDQVQLKDLLKNNSLNELMKLKPPANIAQPVATAATDVSNGTVKKESSNKEGARMWINDMKMRSFSPTMKVPVVKEDDEPEEEDEEEMGHAETYAEYMPIKLKIGLRHPDAVVETSSLSSVTPPDVWYKTSISEETIDNGWLSALQLEAITYAAQQHETFLPNGDRAGFLIGDGAGVGKGRTIAGIIYENYLLSRKRALWFSVSNDLKYDAERDLRDIGAKNILVHSLNKFKYGKISSKHNGSVKKGVIFATYSSLIGESQSGGKYKTRLKQLLHWCGDDFDGVIVFDECHKAKNLCPVGSSKPTKTGLAVLELQNKLPKARVVYASATGASEPRNMAYMNRLGIWGEGTPFREFSDFIQAVERRGVGAMEIVAMDMKLRGMYIARQLSFTGVTFKIEEVLLSQSYVKMYNKAVKLWVIARERFQQAADLIDAEQRMKKSMWGQFWSAHQRFFKYLCIASKVKRVVQLAREEIKNGKCVVIGLQSTGEARTLEALEEGGGELNDFVSTAKGVLQSLIEKHFPAPDRKKLYSLLGIDLTAPSNNSSPRDSPCKENKIKKRKGEEITREAKKARKVGGLTGSSSDDSGSESDASDNEESDYESSKNMSSGDDDDFNPFLDESNEDDENDPWLIRKDHKKNKEKKKKKSIDPDSIQSALLASGLGSKRPSFSSTPVISPAPNSTPANSNTNSNSSLITSQDAVERAQQMKKDLLDKLEKLAEDLPPNTLDELIDELGGPENVAEMTGRKGRVVSNDDGSISYESRSELDVPVEILNITEKQRFMDGDKNIAIISEAASSGISLQADRRAKNQRRRVHMTLELPWSADRAIQQFGRTHRSNQVTAPEYVFLISELAGEQRFASIVAKRLESLGALTHGDRRATESRDLSRFNFDNKYGRNALEIVMKSIVNLDSPMVSPPPDYPGEFFKDVRQGLIGVGLINVEDRSGILTLDKDYNNIGKFLNRILGMEVHQQNALFQYFADTLTAVVQNAKKNGRYDMGILDLGSGDEKVRKSDVKKFLTPGYSTSGHVELYTISVERGMSWEEATKIWAELTGPDDGFYLSLQIRNNKKTAILVKEVNPKKKLFLVYRPNTGKQLKLEIYADLKKKYKKVVSDDALMHWLDQYNSSADTCTHAYWRGNCKKASLGLVCEIGLRCRTYYVLCGSVLSVWTKVEGVLASVSGTNVKMQIVRLRTEDGQRIVGLIIPANCVSPLVNLLSTSDQSQQLAVQQKQLWQQHHPQSITNLSNA [SBNO1]”, the “solubility in G1/S (log2)” value in the data set with HeLa Kyoto [1] stood at 0.0971. Moreover, the melting temperature with HeLa Kyoto [2] (cell cycle stage: G1/S) stood at 50.9 °C; in the data set on HeLa Kyoto [2] (cell cycle stage: mitosis), 51.4 °C. Besides, the “solubility change mitosis (log2)” value with HeLa Kyoto [3] was -0.158. Moreover, the thermal stability score with HeLa Kyoto [4] (setting [5]) is 1.19; in the data set on HeLa Kyoto [4] (cell cycle stage: mitosis) it was 2.1.
